Assay results: patent US20100172907A1 (Hoffmann-La Roche, published 2010)
Groups on a side chain read outwards from the residue. No end group written: not given here. NSMP = not defined here

T1: BSA-conjugated Aβ heptapeptide AEFRHDC (C-terminal Cys coupled to NSMP-activated BSA)
T1 construct: also called Peptide 2-7
T1 peptide: AEFRHDC

T2: BSA-conjugated Aβ heptapeptide LVFFAEC (reading uncertain; also: BSA conjugate)
T2 construct: also called Peptide 17-22
T2 peptide: LVFFAEC([NSMP-BSA])

T3: BSA-conjugated Aβ heptapeptide VFFAEDC (C-terminal Cys coupled to NSMP-activated BSA)
T3 construct: also called Peptide 18-23
T3 peptide: VFFAEDC

T4: BSA-conjugated Aβ heptapeptide FFAEDVC (C-terminal Cys coupled to NSMP-activated BSA)
T4 construct: also called Peptide 19-24
T4 peptide: FFAEDVC


How the values were obtained:
[1] = molecular target: T1, BSA-conjugated Aβ heptapeptide AEFRHDC; assay: ELISA
[2] = molecular target: T2, BSA-conjugated Aβ heptapeptide LVFFAEC; assay: ELISA
[3] = molecular target: T3, BSA-conjugated Aβ heptapeptide VFFAEDC; assay: ELISA
[4] = molecular target: T4, BSA-conjugated Aβ heptapeptide FFAEDVC; assay: ELISA
human Aβ (1-40) peptide = molecular target: T5, human Aβ (1-40) peptide (human); assay: SPR, immobilized fibers;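 note: biacore SPR using in vitro grown Aβ1-40 or Aβ1-42 fibrils immobilized on the chip with Fab analytes, KD from koff/kon fits or equilibrium isotherms based on total Fab concentration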
T5 construct: also called Aβ1-40 fibers
Protocol: (§1) Biacore2000 and Biacore3000 instruments were used for these measurements. Aβ1-40 and Aβ1-42 fibers were generated in vitro by incubation of synthetic peptides at a concentration of 200 μg/ml in 10 mM Na-acetate buffer (pH 4.0) for three days at 37° C. […] For binders with slow kinetics KD values were calculated by curve fitting of the time-dependent sensor responses, i.e. from the ratio of koff/kₒₙ. Binders with fast kinetics were analyzed by fitting the concentration-dependent sensor responses at equilibrium (adsorption-isotherms). KD values were calculated from the Biacore sensograms based on the total Fab concentration as determined by a protein assay. […] Briefly, time-dependent protein binding to Aβ1-40 fibers immobilized on the Biacore chip was measured during the association phase under mass-limited conditions at different flow rates of the analyte solution.

Aβ (1-42) peptide = molecular target: T6, Aβ (1-42) peptide (human); assay: SPR, immobilized fibers;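 note: biacore SPR using in vitro grown Aβ1-40 or Aβ1-42 fibrils immobilized on the chip with Fab analytes, KD from koff/kon fits or equilibrium isotherms based on total Fab concentration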
T6 construct: also called Aβ1-42 fibers; Aβ4
Protocol: as §1
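Throughout, for OD ratio 17-22/BSA: ELISA of antibody at 10 or 2 µg/ml binding plate-coated BSA–peptide conjugates, detected with HRP anti-human Ig and TMB colour, mock-treated BSA without peptide as negative control.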
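Throughout, for OD ratio 18-23/BSA: ELISA of antibody at 10 or 2 µg/ml binding plate-coated BSA–peptide conjugates, detected with HRP anti-human Ig and TMB colour, mock-treated BSA without peptide as negative control.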
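Throughout, for OD ratio 2-7/BSA: ELISA of antibody at 10 or 2 µg/ml binding plate-coated BSA–peptide conjugates, detected with HRP anti-human Ig and TMB colour, mock-treated BSA without peptide as negative control.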
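Throughout, for Peptide-ratio 17-22/2-7: ELISA of antibody at 10 or 2 µg/ml binding plate-coated BSA–peptide conjugates, detected with HRP anti-human Ig and TMB colour, mock-treated BSA without peptide as negative control.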

Row | OD ratio 2-7/BSA [1] | OD ratio 17-22/BSA [2] | Peptide-ratio 17-22/2-7 [2] | OD ratio 18-23/BSA [3] | Peptide-ratio 18-23/2-7 [3] | OD ratio 19-24/BSA [4] | Peptide-ratio 19-24/2-7 [4] | Kd (human Aβ (1-40) peptide) [nM] | Kd (Aβ (1-42) peptide) [nM] | Binder
1 | 34 | 10 | 0.29 | 12 | 0.36 | 14 | 0.41 | 0.3 | 0.3 | MS-Roche #7.11.H2 Fab (Fab, V domains shown) VH: QVQLVESGGGLVQPGGSLRLSCAASGFTFSSYAMSWVRQAPGKGLEWVSAINANGYKKYYADSVKGRFTISRDNSKNTLYLQMNSLRAEDTAVYYCARGKGNTHKPYGYVRYFDVWGQGTLVTVSS VL: DIVLTQSPATLSLSPGERATLSCRASQSVSSSYLAWYQQKPGQAPRLLIYGASSRATGVPARFSGSGSGTDFTLTISSLEPEDFATYYCQQVYSPPHTFGQGTKVEIKR
2 | 26 | 12 | 0.46 | 23 | 0.88 | 20 | 0.77 | 5.2 | 1.1 | MS-Roche #3.2.H2 Fab (Fab, V domains shown) VH: QVQLVESGGGLVQPGGSLRLSCAASGFTFSSYAMSWVRQAPGKGLEWVSAISQRGQFTYYADSVKGRFTISRDNSKNTLYLQMNSLRAEDTAVYYCARLTHYARYYRYFDVWGQGTLVTVSS VL: not shown
3 | 22 | 9 | 0.41 | 17 | 0.77 | 11 | 0.5 | 6.7 | 8.4 | MS-Roche #3.4.H3 Fab (Fab, V domains shown) VH: QVQLVESGGGLVQPGGSLRLSCAASGFTFSSYAMSWVRQAPGKGLEWVSVISQTGRKIYYADSVKGRFTISRDNSKNTLYLQMNSLRAEDTAVYYCARLTHYARYYRYFDVWGQGTLVTVSS VL: not shown
4 | 27 | 2 | 0.07 | 8 | 0.3 | 2 | 0.07 | 13.5 | 14 | MS-Roche #3.4.H1 Fab (Fab, V domains shown) VH: QVQLVESGGGLVQPGGSLRLSCAASGFTFSSYAMSWVRQAPGKGLEWVSAISETSIRKYYADSVKGRFTISRDNSKNTLYLQMNSLRAEDTAVYYCARLTHYARYYRYFDVWGQGTLVTVSS VL: not shown
5 | 28 | 5 | 0.18 | 13 | 0.46 | 4 | 0.14 | 26.5 | 36 | MS-Roche #3.4.H5 Fab (Fab, V domains shown) VH: QVQLVESGGGLVQPGGSLRLSCAASGFTFSSYAMSWVRQAPGKGLEWVSVISQVGAHIYYADSVKGRFTISRDNSKNTLYLQMNSLRAEDTAVYYCARLTHYARYYRYFDVWGQGTLVTVSS VL: not shown
6 | 31 | 2 | 0.06 | 5 | 0.16 | 2 | 0.06 | 1.4 | 3.3 | MS-Roche #3.3.H3 Fab (Fab, V domains shown) VH: QVQLVESGGGLVQPGGSLRLSCAASGFTFSSYAMSWVRQAPGKGLEWVSAISQNGFHIYYADSVKGRFTISRDNSKNTLYLQMNSLRAEDTAVYYCARLTHYARYYRYFDVWGQGTLVTVSS VL: not shown
7 | 23 | 4 | 0.17 | 12 | 0.52 | 8 | 0.35 | 17.1 | 19.4 | MS-Roche #3.3.H1 Fab (Fab, V domains shown) VH: QVQLVESGGGLVQPGGSLRLSCAASGFTFSSYAMSWVRQAPGKGLEWVSVISEKSRFIYYADSVKGRFTISRDNSKNTLYLQMNSLRAEDTAVYYCARLTHYARYYRYFDVWGQGTLVTVSS VL: not shown
